According to patent US20020151471A1 (published 2002):

What was measured:
Experiment in all cases: TF binding assay; method not stated in the example
[1] = biological target: T1, Factor VII preparation 2 (recombinant human FVII produced serum-free in CHO clone E11, Example 3) (human, UniProt P08709 61-466, N-linked oligosaccharide chains (Factor VII is normally glycosylated at Asn 145 and Asn 322); 94% of chains contain sialic acid, 13% contain fucosylated antenna)
T1 construct: The preparations differ only in glycoform pattern
T1 sequence (looked up): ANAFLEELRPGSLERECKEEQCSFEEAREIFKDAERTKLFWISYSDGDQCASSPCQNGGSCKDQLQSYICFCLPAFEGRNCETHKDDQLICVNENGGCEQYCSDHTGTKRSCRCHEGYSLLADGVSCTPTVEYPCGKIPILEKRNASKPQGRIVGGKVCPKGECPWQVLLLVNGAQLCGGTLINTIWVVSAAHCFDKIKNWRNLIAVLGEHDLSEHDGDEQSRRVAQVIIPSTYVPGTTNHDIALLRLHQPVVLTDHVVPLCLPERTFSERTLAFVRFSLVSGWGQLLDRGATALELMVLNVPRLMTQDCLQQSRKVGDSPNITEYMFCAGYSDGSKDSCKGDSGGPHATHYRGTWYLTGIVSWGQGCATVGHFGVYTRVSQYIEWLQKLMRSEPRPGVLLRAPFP

[2] = biological target: T2, Factor VII preparation 1 (recombinant human FVII produced serum-free in CHO clone E11, Example 3) (human, UniProt P08709 61-466, N-linked oligosaccharide chains (Factor VII is normally glycosylated at Asn 145 and Asn 322); 98% of chains contain sialic acid, 6% contain fucosylated antenna)
T2 construct: The preparations differ only in glycoform pattern
T2 sequence (looked up): T1 sequence (looked up)

[3] = biological target: T3, Factor VII preparation 5 (recombinant human FVII produced serum-free in CHO clone E11, Example 3) (human, UniProt P08709 61-466, N-linked oligosaccharide chains (Factor VII is normally glycosylated at Asn 145 and Asn 322); 86% of chains contain sialic acid, 21% contain fucosylated antenna)
T3 construct: The preparations differ only in glycoform pattern
T3 sequence (looked up): T1 sequence (looked up)

Kd [1]: 2 nM | Kd [2]: 2.8 nM | Kd [3]: 2.8 nM
B1: tissue factor (TF) (receptor, UniProt P13726 33-251, looked up)
chain: SGTTNTVAAYNLTWKSTNFKTILEWEPKPVNQVYTVQISTKSGDWKSKCFYTTDTECDLTDEIVKDVKQTYLARVFSYPAGNVESTGSAGEPLYENSPEFTPYLETNLGQPTIQSFEQVGTKVNVTVEDERTLVRRNNTFLSLRDVFGKDLIYTLYYWKSSSSGKKTAKTNTNEFLIDVDKGENYCFSVQAVIPSRTVNRKSTDSPVECMGQEKGEFRE
